Assay results reported in patent US20040091887.

T1: bovine fibrinogen, P02672
T1 chain 1: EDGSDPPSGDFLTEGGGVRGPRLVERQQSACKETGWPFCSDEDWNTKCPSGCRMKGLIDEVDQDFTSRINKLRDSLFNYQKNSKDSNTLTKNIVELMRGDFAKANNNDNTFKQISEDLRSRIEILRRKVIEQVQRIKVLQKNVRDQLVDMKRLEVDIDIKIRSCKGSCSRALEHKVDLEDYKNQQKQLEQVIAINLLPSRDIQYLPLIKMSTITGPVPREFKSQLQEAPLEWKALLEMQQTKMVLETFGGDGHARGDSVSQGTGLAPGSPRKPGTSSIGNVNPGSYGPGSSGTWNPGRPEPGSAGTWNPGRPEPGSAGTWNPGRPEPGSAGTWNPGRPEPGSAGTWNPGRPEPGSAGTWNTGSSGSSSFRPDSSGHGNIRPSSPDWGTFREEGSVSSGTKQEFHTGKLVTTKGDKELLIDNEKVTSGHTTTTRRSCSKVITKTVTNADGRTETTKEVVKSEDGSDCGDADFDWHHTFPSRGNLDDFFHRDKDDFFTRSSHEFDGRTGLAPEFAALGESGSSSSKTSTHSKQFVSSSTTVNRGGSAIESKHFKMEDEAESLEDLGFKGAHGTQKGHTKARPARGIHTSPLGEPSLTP
T1 chain 2: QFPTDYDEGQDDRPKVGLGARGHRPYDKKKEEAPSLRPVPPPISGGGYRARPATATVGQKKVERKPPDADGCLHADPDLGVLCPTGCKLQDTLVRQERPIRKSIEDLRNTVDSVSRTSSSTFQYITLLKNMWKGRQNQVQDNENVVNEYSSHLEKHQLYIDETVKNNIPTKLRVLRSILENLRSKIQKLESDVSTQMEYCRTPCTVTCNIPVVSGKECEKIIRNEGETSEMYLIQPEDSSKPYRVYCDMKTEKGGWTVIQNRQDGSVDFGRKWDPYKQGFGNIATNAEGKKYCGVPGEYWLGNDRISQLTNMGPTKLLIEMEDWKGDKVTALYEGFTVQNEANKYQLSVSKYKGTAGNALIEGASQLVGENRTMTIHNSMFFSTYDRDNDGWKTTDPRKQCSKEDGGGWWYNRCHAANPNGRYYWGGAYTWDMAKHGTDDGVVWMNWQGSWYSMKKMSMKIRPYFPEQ
T1 chain 3: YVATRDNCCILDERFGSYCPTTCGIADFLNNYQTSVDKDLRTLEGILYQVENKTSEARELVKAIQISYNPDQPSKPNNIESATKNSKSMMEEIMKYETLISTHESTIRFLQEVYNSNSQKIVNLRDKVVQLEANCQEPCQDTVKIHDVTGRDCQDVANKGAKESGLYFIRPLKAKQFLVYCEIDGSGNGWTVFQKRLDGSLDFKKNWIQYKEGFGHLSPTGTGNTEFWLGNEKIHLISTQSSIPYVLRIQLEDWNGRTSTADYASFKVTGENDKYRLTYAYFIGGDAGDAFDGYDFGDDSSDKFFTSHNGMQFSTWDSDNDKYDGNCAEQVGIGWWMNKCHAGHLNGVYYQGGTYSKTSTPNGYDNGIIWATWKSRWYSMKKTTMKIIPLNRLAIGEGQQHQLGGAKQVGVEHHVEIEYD

B1: Mucroslysin recombinant fusion protein (protein)
chain: SSIILESGNVNDYEVVYPRKVSALPKGAVQPKYEDAMQYEFKVNGEAVVLHLEKNKGLFSEDYSETHYSPDGREITTYPSVEDHCYYHGRIHNDADSTASISACDGLKGYFKLQGETYPIEPLELSDSEAHAVFKYENVEKEDEAPKMCGVTQNWESDESIKKASQLYLTPEQQRFPQRYIKLAIVVDHGMYTKYSSNFKKIRKRVHQMVSNINEMCRPLNIAITLALLDVWSEKDFITVQADAPTTAGLFGDWRERVLLKKKNHDHAQLLTDTNFARNTIGWAYVGRMCDEKYSVAVVKDHSSKVFMVAVTMTHELGHNLGMEHDDKDKCKCDTCIMSAVISDKQSKLFSDCSKDYYQTFLTNDNPQCILNAPLRTDTVSTPVSGNEFLEAGEECDCGSPENPCCDAATCKLRPGAQCAEGLCCDQCRFKKKRTICRRARGDNPDDRCTGQSADCPRNGLYG
B2: recombinant fibrinlysin protein (protein)
chain: EQQRFPQRYIKLAIVVDHGMYTKYSSNFKKIRKRVHQMVSNINEMCRPLNIAITLALLDVWSEKDFITVQADAPTTAGLFGDWRERVLLKKKNHDHAQLLTDTNFARNTIGWAYVGRMCDEKYSVAVVKDHSSKVFMVAVTMTHELGHNLGMEHDDKDKCKCDTCIMSAVISDKQSKLFSDCSKDYYQTFLTNDNPQCILNAP

Biological target: T1, bovine fibrinogen, P02672

Protein	fibrinogenolytic assay, cleavage pattern on 10% SDS-PAGE: cleavage of the gamma chain	fibrinogenolytic assay, cleavage pattern on 10% SDS-PAGE: start of digestion of the B beta chain	fibrinogenolytic assay, cleavage pattern on 10% SDS-PAGE: time to complete digestion of the A alpha chain	fibrinogenolytic assay, cleavage pattern on 10% SDS-PAGE: time to complete digestion of the B beta chain	dose-dependent fibrinogenolytic assay in vitro: amount for complete digestion of the A alpha chain	dose-dependent fibrinogenolytic assay in vitro: amount for complete digestion of the B beta chain	dose-dependent fibrinogenolytic assay in vitro: amount for complete digestion of the gamma chain	time-dependent fibrinogenolytic assay in vitro: time to complete digestion of the A alpha chain	time-dependent fibrinogenolytic assay in vitro: time to complete digestion of the B beta chain	time-dependent fibrinogenolytic assay in vitro: time to complete digestion of the gamma chain
B1	Mucroslysin protein also exhibited the ability to cleave the γ-chain of fibrinogen	the digestion of the Bβ-chain began at 18 hr	The Aα-chain of fibrinogen was completely digested at 18 hr after incubation	The Bβ-chain was completely digested after 36 hrs	–	–	–	–	–	–
B2	–	–	–	–	the Aα-chain of fibrinogen was completely digested with 4 µg of the refolded protein	The Bβ-chain was completely digested with 7 µg of the refolded protein	The γ-chain also was completely digested with 21 µg of the refolded protein	the Aα-chain of fibrinogen was completely digested at 5 hr after incubation	The Bβ-chain was completely digested after 7 hrs	the γ-chain was completely digested after 30 hrs
